Assay [1] deals with T1, VHH-SnoopCatcher (fragment released from VHH-SnoopCatcher-Herceptin H chain by thrombin).
T1 construct: Seen only as a band on SDS-PAGE, together with VHH-SnoopTag
The assay can be described thus: SDS-PAGE of the purified thrombin-cleaved sample.

Assay [2] addresses T2, VHH-SpyCatcher-CD3 H chain.
T2 construct: Fusion protein expressed in Expi293F cells; also called second protein; VHH-SpyCatcher-CD3 H chain region
The assay can be described thus: SDS-PAGE before and after thrombin cleavage; the complex bands are lost after cleavage. The procedure: Next, it was examined whether the band at the estimated molecular weight of the complex in Example 1(3) above was derived from the complex that included the VHH-SpyTag-CD3 L chain and the VHH-SpyCatcher-CD3 H chain. Specifically, the protein was purified in the same manner as in Example 1(2) above, and the elution fraction after the purification was added to a thrombin buffer (2.5 mmol/l CaCl₂), 150 mmol/l NaCl, 20 mmol/l Tris-HCl (pH8.0)). After the addition, the resulting mixture was dialyzed for 6 hours. Then, thrombin (cleaving ability: 2 unit/μl, manufactured by Wako Pure Chemical Industries, Ltd.) was added in accordance with the yield of the protein. After the addition, the mixture was left to stand at 25° C. overnight. After the standing, a sample after the cleavage reaction was purified using a protein A column. After the purification, a purified thrombin-cleaved sample was obtained. Then, SDS-PAGE was conducted. The SDS-PAGE was conducted in the same manner as in Example 1(3) above, except that the purified thrombin-cleaved sample was used as a sample for the SDS-PAGE in addition to the purified sample. […]

The target of assay [3] is T3, VHH-SpyCatcher (fragment released from VHH-SpyCatcher-CD3 H chain by thrombin).
T3 construct: Seen only as a band on SDS-PAGE, together with VHH-SpyTag
The assay can be described thus: SDS-PAGE of the purified thrombin-cleaved sample.

B1: VHH-SnoopTag (fragment released from VHH-SnoopTag-Herceptin L chain by thrombin) (other, not shown: small tags and cut ends)
chain: QVQLVESGGALVQPGGSLRLSCAASGFPVNRYSMRWYRQAPGKEREWVAGMSSAGDRSSYEDSVKGRFTISRDDARNTVYLQMNSLKPEDTAVYYCNVNVGFEYWGQGTQVTVSSGGSGGKLGDIEFIKVNKGGSGGGGSGG
notes: Seen only as a band on SDS-PAGE, together with VHH-SnoopCatcher
For B1, in assay [1], the binding result was “binds”.

B2: VHH-SpyTag-CD3 L chain (other)
chain: QVQLVESGGALVQPGGSLRLSCAASGFPVNRYSMRWYRQAPGKEREWVAGMSSAGDRSSYEDSVKGRFTISRDDARNTVYLQMNSLKPEDTAVYYCNVNVGFEYWGQGTQVTVSSGGSGGAHIVMVDAYKPTKGGSGGGGSGGLVPRGSHMHMDIVLTQSPAIMSASPGEKVTMTCSASSSVSYMNWYKQKSGTSPKRWTYDTSKLASGVPARFSGSGSGTSYSLTISSMEAEDAATYYCQQWSSNPPTFGSGTKLEIKRTVAAPSVFIFPPSDEQLKSGTASVVCLLNNFYPREAKVQWKVDNALQSGNSQESVTEQDSKDSTYSLSSTLTLSKADYEKHKVYACEVTHQGLSSPVTKSFNRGEC
notes: Fusion protein expressed in Expi293F cells; also called first protein; VHH-SpyTag-CD3 L chain region
On to B2, for which, in assay [2], the binding result is recorded as “binds”.

B3: VHH-SpyTag (fragment released from VHH-SpyTag-CD3 L chain by thrombin) (other, not shown: small tags and cut ends)
chain: QVQLVESGGALVQPGGSLRLSCAASGFPVNRYSMRWYRQAPGKEREWVAGMSSAGDRSSYEDSVKGRFTISRDDARNTVYLQMNSLKPEDTAVYYCNVNVGFEYWGQGTQVTVSSGGSGGAHIVMVDAYKPTKGGSGGGGSGG
notes: Seen only as a band on SDS-PAGE, together with VHH-SpyCatcher
Turning to B3, the binding result in assay [3] is given as “binds”.
